± gives the uncertainty stated by the source.
Assay: self-splicing fitness, log relative to wild type (ln ratio); higher = more splicing; Tetrahymena group I intron in knt gene, E. coli kanamycin selection, DiMSum; sequences stand for … in CUCUCU…GGAGGGAAAAGUUAUCAGGCAUGCACCUGGUAGCUAGUCUUUAAACCAAUAGAUUGCAUCGGUUUAAAAGGCAAGACCGUCAAAUUGCGGGAAAGGGGUCAACAGCCGUUCAGUACCAAGUCUCAGGGGAAACUUUGAGAUGGCCUUGCAAAGGGUAUGGUAAUAAGCUGACGGACAUGGUCCUAACCACGCAGCCAAGUCCUAAGUCAACAGAUCUUCUGUUGAUAUGGAUGCAGUUCACAGACUAAAUGUCGGUCGGGGAAGAUGUAUUCUUCUCAUAAGAUAUAGUCGGACCUCUCCUUAAUGGGAGCUAGCGGAUGAAGUGAUGCAACACUGGAGCCGCUGGGAACUAAUUUGUAUGCGAAAGUAUAUUGAUUAGUUUUGGAGUACUCGUGGUCG
Summary of the method: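 Six replicate transformations of E. coli BL21(DE3) with a pET-22b(+) library were grown overnight at 37°C or 30°C. The library randomised all eight P1ex-region intron nucleotides, the intron lying in the knt kanamycin-resistance gene, and plates were LB agar with or without 25 μg/mL kanamycin plus 100 μg/mL carbenicillin, 50 μM IPTG and 0.2% rhamnose. Pooled colonies were amplicon-sequenced on an Illumina HiSeq 2500, and fitness is the DiMSum error-weighted combination of wild-type-normalised replicate fold changes, kanamycin versus none.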

Sequence | self-splicing fitness (ln) (30 °C) | self-splicing fitness (ln) (37 °C)
GAGCAGCAAUAUUACGAUUA | -2.26 ± 0.15 | -1.13 ± 0.12
CGAGAGCAAUAUUACGCAUC | -3.04 ± 0.35 | -2.33 ± 0.35
GGUUAGCAAUAUUACGGUCU | -0.263 ± 0.12 | 0.162 ± 0.15
UUGUAGCAAUAUUACGAUGU | -3.86 ± 0.29 | -0.334 ± 0.12
ACACAGCAAUAUUACGACUG | -0.972 ± 0.047 | -0.67 ± 0.06
AUCGAGCAAUAUUACGAGAG | -3.84 ± 0.39 | -1.14 ± 0.19
CGUUAGCAAUAUUACGCACA | -1.33 ± 0.17 | -0.0289 ± 0.28
CUCUAGCAAUAUUACGCAGC | -3.2 ± 0.25 | 
CCUCAGCAAUAUUACGAAGU | -3.54 ± 0.17 | -1.88 ± 0.15
ACAGAGCAAUAUUACGUUAU | -3.59 ± 0.19 | -3 ± 0.25
GUAUAGCAAUAUUACGCCUC | -1.32 ± 0.21 | -0.746 ± 0.27
UAACAGCAAUAUUACGUAUG | -1.52 ± 0.058 | -0.164 ± 0.075
UGGGAGCAAUAUUACGUGGU | -2.97 ± 0.35 | -1.56 ± 0.26
AAGCAGCAAUAUUACGGUAC | -3.08 ± 0.23 | -2.49 ± 0.22
GGUCAGCAAUAUUACGUUUU | -0.899 ± 0.073 | -0.202 ± 0.078
AAGGAGCAAUAUUACGCUGG | -2.18 ± 0.24 | -2.24 ± 0.31
GCUAAGCAAUAUUACGCUAU | -1.91 ± 0.14 | -2.08 ± 0.17
ACGUAGCAAUAUUACGAGGU | -3.36 ± 0.21 | -2.02 ± 0.2
AACGAGCAAUAUUACGCUUG | -2.67 ± 0.17 | -2.99 ± 0.29
AAAUAGCAAUAUUACGUGUC | -3.4 ± 0.19 | -3.29 ± 0.25
UAAUAGCAAUAUUACGCAGA |  | -0.288 ± 0.16
UCUUAGCAAUAUUACGACCG | -1.95 ± 0.36 | -0.528 ± 0.34
UAGAAGCAAUAUUACGGAAG | -2.16 ± 0.22 | -0.543 ± 0.23
UAGUAGCAAUAUUACGAGAU | -2.69 ± 0.13 | -2.32 ± 0.19
CCCGAGCAAUAUUACGGGCG | -3.03 ± 0.19 | -2.47 ± 0.25

Sequence | self-splicing fitness (ln) (30 °C) | self-splicing fitness (ln) (37 °C)
AAGAAGCAAUAUUACGCGAG | -0.936 ± 0.081 | -0.561 ± 0.1
UGAAAGCAAUAUUACGAAUG | -0.602 ± 0.066 | -0.0842 ± 0.078
AUUAAGCAAUAUUACGCAUC | -3.36 ± 0.31 | -1.24 ± 0.25
CUCCAGCAAUAUUACGCGCU | -4.33 ± 0.26 | -2.2 ± 0.2
CUGAAGCAAUAUUACGCUAA |  | -2.45 ± 0.32
AAGGAGCAAUAUUACGCAAU | -2.67 ± 0.17 | -1.71 ± 0.19
CAUGAGCAAUAUUACGAUGU | -2.32 ± 0.19 | -2.72 ± 0.36
CCAGAGCAAUAUUACGUGUG | -1.69 ± 0.091 | -1.54 ± 0.097
CAAUAGCAAUAUUACGGGUC | -3.28 ± 0.34 | -2.4 ± 0.48
AAGAAGCAAUAUUACGCCUA | -0.339 ± 0.12 | -0.209 ± 0.13
GACAAGCAAUAUUACGCGGC | -2.75 ± 0.17 | -3.11 ± 0.21
UAUCAGCAAUAUUACGUGGG | -1.97 ± 0.1 | -1.77 ± 0.13
CCCAAGCAAUAUUACGAUUC | -3.69 ± 0.25 | -2.1 ± 0.26
GACAAGCAAUAUUACGAUGA | -0.527 ± 0.078 | -0.303 ± 0.085
CUAAAGCAAUAUUACGGUGC | -3.22 ± 0.16 | -3.15 ± 0.25
AUGCAGCAAUAUUACGCCUG | -2.61 ± 0.35 | 
CUGAAGCAAUAUUACGAUCA | -1.68 ± 0.13 | -1.53 ± 0.13
UAUUAGCAAUAUUACGCCGA | -2.3 ± 0.31 | -0.195 ± 0.28
GGUUAGCAAUAUUACGCAUA | -0.622 ± 0.12 | -0.182 ± 0.14
AGUCAGCAAUAUUACGGCAC | -0.122 ± 0.093 | -0.255 ± 0.14
UCCUAGCAAUAUUACGUGAU | -3.3 ± 0.28 | -1.9 ± 0.24
AUUUAGCAAUAUUACGGGAU | -1.42 ± 0.11 | -0.217 ± 0.14
GUGCAGCAAUAUUACGACAU | -0.587 ± 0.013 | -0.143 ± 0.032
AGCAAGCAAUAUUACGUGCG | -1.25 ± 0.069 | -1.05 ± 0.087
AACAAGCAAUAUUACGCCAG | -2.62 ± 0.15 | -1.24 ± 0.15

Sequence | self-splicing fitness (ln) (30 °C) | self-splicing fitness (ln) (37 °C)
AUUAAGCAAUAUUACGGUAA | -1.64 ± 0.12 | -1.33 ± 0.11
GACAAGCAAUAUUACGUGGC | -4.6 ± 0.32 | -1.61 ± 0.11
ACGCAGCAAUAUUACGAGCC | -2.97 ± 0.2 | -1.84 ± 0.17
AACAAGCAAUAUUACGCCCA | -0.0653 ± 0.094 | -0.00342 ± 0.11
GGCAAGCAAUAUUACGUAUG | -2 ± 0.092 | -1.74 ± 0.1
AAAUAGCAAUAUUACGCUCC | -1.48 ± 0.31 | 0.174 ± 0.42
ACGCAGCAAUAUUACGAAAC | -3.07 ± 0.4 | -1.58 ± 0.21
GGUUAGCAAUAUUACGAUAU | -0.423 ± 0.1 | -0.137 ± 0.13
AACGAGCAAUAUUACGCGGU | -3.29 ± 0.26 | -1.62 ± 0.15
AAGAAGCAAUAUUACGCGUA | -1.39 ± 0.099 | -0.914 ± 0.082
UUUAAGCAAUAUUACGGAGG | -2.95 ± 0.22 | -2.18 ± 0.27
CUCCAGCAAUAUUACGGCCG | -1.3 ± 0.1 | -0.777 ± 0.14
UUGCAGCAAUAUUACGGCGU | -0.34 ± 0.051 | 0.352 ± 0.065
UAAGAGCAAUAUUACGUAAC | -5.23 ± 0.45 | -1.44 ± 0.18
UCCCAGCAAUAUUACGCGUC | -3.15 ± 0.19 | -1.47 ± 0.18
GUGGAGCAAUAUUACGGCCG | -3.44 ± 0.28 | -2.03 ± 0.22
UACAAGCAAUAUUACGAAUG | -0.773 ± 0.065 | -0.319 ± 0.086
ACCGAGCAAUAUUACGGCAG | -4.4 ± 0.39 | 
UAACAGCAAUAUUACGUGUA | -1.6 ± 0.056 | -0.0928 ± 0.06
GUGUAGCAAUAUUACGGAGG | -3.89 ± 0.29 | -2.67 ± 0.22
GGCCAGCAAUAUUACGUGAG | -2.13 ± 0.08 | -1.49 ± 0.092
CGAUAGCAAUAUUACGCAAC | -3.83 ± 0.4 | -2.49 ± 0.3
UAAGAGCAAUAUUACGUGAG | -1.37 ± 0.13 | -0.181 ± 0.23
AAUGAGCAAUAUUACGGACG | -2.44 ± 0.2 | 
UCAUAGCAAUAUUACGGUUU | -3.72 ± 0.28 | -1.92 ± 0.22

Sequence | self-splicing fitness (ln) (30 °C) | self-splicing fitness (ln) (37 °C)
ACUAAGCAAUAUUACGGUCC | -2.35 ± 0.2 | -1.04 ± 0.23
AAGGAGCAAUAUUACGGCAG | -2.86 ± 0.33 | -1.75 ± 0.32
UGGUAGCAAUAUUACGGCCG | -1.62 ± 0.29 | -0.342 ± 0.32
CAAGAGCAAUAUUACGUCAU | -4.3 ± 0.24 | -3.57 ± 0.17
GCUAAGCAAUAUUACGAAUG | -0.647 ± 0.082 | -0.433 ± 0.11
UGCGAGCAAUAUUACGCAAG | -2.27 ± 0.27 | 
UGCUAGCAAUAUUACGCGGG | -3.41 ± 0.28 | -2.38 ± 0.31
AGUGAGCAAUAUUACGAUAA | -4.08 ± 0.33 | -2.16 ± 0.25
GGGCAGCAAUAUUACGGGAA | -2.67 ± 0.31 | -2.7 ± 0.32
ACUAAGCAAUAUUACGGUCG | -2.89 ± 0.16 | -1.47 ± 0.15
UUUCAGCAAUAUUACGGGUA | -0.909 ± 0.1 | -0.337 ± 0.12
GUAUAGCAAUAUUACGCUUG | -1.72 ± 0.16 | -1.41 ± 0.26
UCCCAGCAAUAUUACGGUUA | -0.244 ± 0.071 | 0.0867 ± 0.077
UCCGAGCAAUAUUACGAGUG | -2.41 ± 0.09 | -1.34 ± 0.094
UGCCAGCAAUAUUACGGUUC | -3.35 ± 0.2 | -1.81 ± 0.14
UAGUAGCAAUAUUACGAGGC | -3.45 ± 0.32 | 
UAAGAGCAAUAUUACGGGAA | -2.21 ± 0.3 | -1.77 ± 0.24
CCUGAGCAAUAUUACGGGGA | -3.07 ± 0.15 | -3.37 ± 0.2
GUAAAGCAAUAUUACGGUAC | -1.61 ± 0.12 | -1.26 ± 0.18
GUGGAGCAAUAUUACGGGAG | -3.74 ± 0.37 | -1.8 ± 0.3
ACUUAGCAAUAUUACGUCUC | -2.31 ± 0.25 | -3.34 ± 0.32
CAAGAGCAAUAUUACGAGAG | -3.74 ± 0.16 | -1.83 ± 0.13
